In the supplement of paper PMC5998384:

Legend:
[1] = tested on: HeLa Kyoto; experiment: solubility in G1/S (NP-40 vs SDS abundance) (log2 ratio); higher = more soluble; details: cell cycle stage: G1/S
[2] = tested on: HeLa Kyoto; experiment: solubility change mitosis vs G1/S (difference of NP-40 vs SDS log2 ratios) (log2 ratio difference); higher = more soluble in mitosis
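Wherever solubility change mitosis vs G1/S (difference of NP-40 vs SDS log2 ratios) is given: synchronized HeLa Kyoto cells (double thymidine block for G1/S, nocodazole release for mitosis), protein amounts in NP-40 versus SDS lysates quantified by mass spectrometry, three biological replicates.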
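Wherever solubility in G1/S (NP-40 vs SDS abundance) is given: HeLa Kyoto cells arrested at G1/S by double thymidine block, proteins quantified by TMT10plex mass spectrometry in mild NP-40 versus SDS extracts, three biological replicates.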

Sequence | solubility in G1/S (log2) [1] | solubility change mitosis (log2) [2]
MERLRDVRERLQAWERAFRRQRGRRPSQDDVEAAPEETRALYREYRTLKRTTGQAGGGLRSSESLPAAAEEAPEPRCWGPHLNRAATKSPQSTPGRSRQGSVPDYGQRLKANLKGTLQAGPALGRRPWPLGRASSKASTPKPPGTGPVPSFAEKVSDEPPQLPEPQPRPGRLQHLQASLSQRLGSLDPGWLQRCHSEVPDFLGAPKACRPDLGSEESQLLIPGESAVLGPGAGSQGPEASAFQEVSIRVGSPQPSSSGGEKRRWNEEPWESPAQVQQESSQAGPPSEGAGAVAVEEDPPGEPVQAQPPQPCSSPSNPRYHGLSPSSQARAGKAEGTAPLHIFPRLARHDRGNYVRLNMKQKHYVRGRALRSRLLRKQAWKQKWRKKGECFGGGGATVTTKESCFLNEQFDHWAAQCPRPASEEDTDAVGPEPLVPSPQPVPEVPSLDPTVLPLYSLGPSGQLAETPAEVFQALEQLGHQAFRPGQERAVMRILSGISTLLVLPTGAGKSLCYQLPALLYSRRSPCLTLVVSPLLSLMDDQVSGLPPCLKAACIHSGMTRKQRESVLQKIRAAQVHVLMLTPEALVGAGGLPPAAQLPPVAFACIDEAHCLSQWSHNFRPCYLRVCKVLRERMGVHCFLGLTATATRRTASDVAQHLAVAEEPDLHGPAPVPTNLHLSVSMDRDTDQALLTLLQGKRFQNLDSIIIYCNRREDTERIAALLRTCLHAAWVPGSGGRAPKTTAEAYHAGMCSRERRRVQRAFMQGQLRVVVATVAFGMGLDRPDVRAVLHLGLPPSFESYVQAVGRAGRDGQPAHCHLFLQPQGEDLRELRRHVHADSTDFLAVKRLVQRVFPACTCTCTRPPSEQEGAVGGERPVPKYPPQEAEQLSHQAAPGPRRVCMGHERALPIQLTVQALDMPEEAIETLLCYLELHPHHWLELLATTYTHCRLNCPGGPAQLQALAHRCPPLAVCLAQQLPEDPGQGSSSVEFDMVKLVDSMGWELASVRRALCQLQWDHEPRTGVRRGTGVLVEFSELAFHLRSPGDLTAEEKDQICDFLYGRVQARERQALARLRRTFQAFHSVAFPSCGPCLEQQDEERSTRLKDLLGRYFEEEEGQEPGGMEDAQGPEPGQARLQDWEDQVRCDIRQFLSLRPEEKFSSRAVARIFHGIGSPCYPAQVYGQDRRFWRKYLHLSFHALVGLATEELLQVAR [RECQL4] | -0.103 | 0.0659
MENLPAVTTEEPTPMGRGPVGPSGGGSTRDQVRTVVMRPSVSWEKAGPEEAKAPVRGDEAPPARVAGPAAGTPPCQMGVYPTDLTLQLLAVRRKSRLRDPGLQQTLRGQLRLLENDSREMARVLGELSARLLSIHSDQDRIVVTFKTFEEIWKFSTYHALGFTHHCLANLLMDQAFWLLLPSEEEETAIQVHVDENALRLTHESLLIQEGPFFVLCPDHHVRVMTGPRDAGNGPQALRQASGAPQGEAAPETDSSPPSPSVSSEEVAVAAAPEPLIPFHQWALRIPQDPIDDAMGGPVMPGNPLMAVGLASALADFQGSGPEEMTFRGGDLIEILGAQVPSLPWCVGRHAASGRVGFVRSSLISMQGPVSELESAIFLNEEEKSFFSEGCFSEEDARQLLRRMSGTDVCSVYSLDSVEEAETEQPQEKEIPPPCLSLEPQETLQKVKNVLEQCKTCPGCPQEPASWGLCAASSDVSLQDPEEPSFCLEAEDDWEDPEALSSLLLFLNAPGYKASFRGLYDVALPWLSSVFRSFSDEEELTGRLAQARGAAKKAGLLMALARLCFLLGRLCSRRLKLSQARVYFEEALGALEGSFGDLFLVVAVYANLASIYRKQKNREKCAQVVPKAMALLLGTPDHICSTEAEGELLQLALRRAVGGQSLQAEARACFLLARHHVHLKQPEEALPFLERLLLLHRDSGAPEAAWLSDCYLLLADIYSRKCLPHLVLSCVKVASLRTRGSLAGSLRSVNLVLQNAPQPHSLPAQTSHYLRQALASLTPGTGQALRGPLYTSLAQLYSHHGCHGPAITFMTQAVEASAIAGVRAIVDHLVALAWLHVLHGQSPVALDILQSVRDAVVASEDQEGVIANMVAVALKRTGRTRQAAESYYRALRVARDLGQQRNQAVGLANFGALCLHAGASRLAQHYLLEAVRLFSRLPLGECGRDFTHVLLQLGHLCTRQGPAQQGKGYYEWALLVAVEMGHVESQLRAVQRLCHFYSAVMPSEAQCVIYHELQLSLACKVADKVLEGQLLETISQLYLSLGTERAYKSALDYTKRSLGIFIDLQKKEKEAHAWLQAGKIYYILRQSELVDLYIQVAQNVALYTGDPNLGLELFEAAGDIFFDGAWEREKAVSFYRDRALPLAVTTGNRKAELRLCNKLVALLATLEEPQEGLEFAHMALALSITLGDRLNERVAYHRLAALQHRLGHGELAEHFYLKALSLCNSPLEFDEETLYYVKVYLVLGDIIFYDLKDPFDAAGYYQLALAAAVDLGNKKAQLKIYTRLATIYHNFLLDREKSLFFYQKARTFATELNVRRVNLPPLPLCGWAPWLAPSHPR [SH3TC1] | -0.47 | 0.0532
MGNLESAEGVPGEPPSVPLLLPPGKMPMPEPCELEERFALVLSSMNLPPDKARLLRQYDNEKKWDLICDQERFQVKNPPHTYIQKLQSFLDPSVTRKKFRRRVQESTKVLRELEISLRTNHIGWVREFLNDENKGLDVLVDYLSFAQCSVMFDFEGLESGDDGAFDKLRSWSRSIEDLQPPSALSAPFTNSLARSARQSVLRYSTLPGRRALKNSRLVSQKDDVHVCILCLRAIMNYQYGFNLVMSHPHAVNEIALSLNNKNPRTKALVLELLAAVCLVRGGHEIILAAFDNFKEVCKELHRFEKLMEYFRNEDSNIDFMVACMQFINIVVHSVEDMNFRVHLQYEFTKLGLEEFLQKSRHTESEKLQVQIQAYLDNVFDVGGLLEDAETKNVALEKVEELEEHVSHLTEKLLDLENENMMRVAELEKQLLQREKELESIKETYENTSHQVHTLRRLIKEKEEAFQRRCHLEPNVRGLESVDSEALARVGPAELSEGMPPSDLDLLAPAPPPEEVLPLPPPPAPPLPPPPPPLPDKCPPAPPLPGAAPSVVLTVGLSAIRIKKPIKTKFRLPVFNWTALKPNQISGTVFSELDDEKILEDLDLDKFEELFKTKAQGPALDLICSKNKTAQKAASKVTLLEANRAKNLAITLRKAGRSAEEICRAIHTFDLQTLPVDFVECLMRFLPTEAEVKLLRQYERERQPLEELAAEDRFMLLFSKVERLTQRMAGMAFLGNFQDNLQMLTPQLNAIIAASASVKSSQKLKQMLEIILALGNYMNSSKRGAVYGFKLQSLDLLLDTKSTDRKMTLLHFIALTVKEKYPDLANFWHELHFVEKAAAVSLENVLLDVKELGRGMELIRRECSIHDNSVLRNFLSTNEGKLDKLQRDAKTAEEAYNAVVRYFGESPKTTPPSVFFPVFVRFIRSYKEAEQENEARKKQEEVMREKQLAQEAKKLDAKTPSQRNKWQQQELIAELRRRQAKEHRPVYEGKDGTIEDIITVLKSVPFTARTAKRGSRFFCDAAHHDESNC [FMNL3] | -0.31 | 0.267
MSANEDQEMELEALRSIYEGDESFRELSPVSFQYRIGENGDPKAFLIEISWTETYPQTPPILSMNAFFNNTISSAVKQSILAKLQEAVEANLGTAMTYTLFEYAKDNKEQFMENHNPINSATSISNIISIETPNTAPSSKKKDKKEQLSKAQKRKLADKTDHKGELPRGWNWVDVVKHLSKTGSKDDE [RWDD4] | 0.234 | 0.301
MAGGPGPGEPAAPGAQHFLYEVPPWVMCRFYKVMDALEPADWCQFAALIVRDQTELRLCERSGQRTASVLWPWINRNARVADLVHILTHLQLLRARDIITAWHPPAPLPSPGTTAPRPSSIPAPAEAEAWSPRKLPSSASTFLSPAFPGSQTHSGPELGLVPSPASLWPPPPSPAPSSTKPGPESSVSLLQGARPFPFCWPLCEISRGTHNFSEELKIGEGGFGCVYRAVMRNTVYAVKRLKENADLEWTAVKQSFLTEVEQLSRFRHPNIVDFAGYCAQNGFYCLVYGFLPNGSLEDRLHCQTQACPPLSWPQRLDILLGTARAIQFLHQDSPSLIHGDIKSSNVLLDERLTPKLGDFGLARFSRFAGSSPSQSSMVARTQTVRGTLAYLPEEYIKTGRLAVDTDTFSFGVVVLETLAGQRAVKTHGARTKYLKDLVEEEAEEAGVALRSTQSTLQAGLAADAWAAPIAMQIYKKHLDPRPGPCPPELGLGLGQLACCCLHRRAKRRPPMTQVYERLEKLQAVVAGVPGHSEAASCIPPSPQENSYVSSTGRAHSGAAPWQPLAAPSGASAQAAEQLQRGPNQPVESDESLGGLSAALRSWHLTPSCPLDPAPLREAGCPQGDTAGESSWGSGPGSRPTAVEGLALGSSASSSSEPPQIIINPARQKMVQKLALYEDGALDSLQLLSSSSLPGLGLEQDRQGPEESDEFQS [IRAK1] | 0.247 | 0.07
MAPVSGSRSPDREASGSGGRRRSSSKSPKPSKSARSPRGRRSRSHSCSRSGDRNGLTHQLGGLSQGSRNQSYRSRSRSRSRERPSAPRGIPFASASSSVYYGSYSRPYGSDKPWPSLLDKEREESLRQKRLSERERIGELGAPEVWGLSPKNPEPDSDEHTPVEDEEPKKSTTSASTSEEEKKKKSSRSKERSKKRRKKKSSKRKHKKYSEDSDSDSDSETDSSDEDNKRRAKKAKKKEKKKKHRSKKYKKKRSKKSRKESSDSSSKESQEEFLENPWKDRTKAEEPSDLIGPEAPKTLTSQDDKPLNYGHALLPGEGAAMAEYVKAGKRIPRRGEIGLTSEEIASFECSGYVMSGSRHRRMEAVRLRKENQIYSADEKRALASFNQEERRKRENKILASFREMVYRKTKGKDDK [NKAP] | -0.301 | 0.107
MMFGGYETIEAYEDDLYRDESSSELSVDSEVEFQLYSQIHYAQDLDDVIREEEHEEKNSGNSESSSSKPNQKKLIVLSDSEVIQLSDGSEVITLSDEDSIYRCKGKNVRVQAQENAHGLSSSLQSNELVDKKCKSDIEKPKSEERSGVIREVMIIEVSSSEEEESTISEGDNVESWMLLGCEVDDKDDDILLNLVGCENSVTEGEDGINWSISDKDIEAQIANNRTPGRWTQRYYSANKNIICRNCDKRGHLSKNCPLPRKVRRCFLCSRRGHLLYSCPAPLCEYCPVPKMLDHSCLFRHSWDKQCDRCHMLGHYTDACTEIWRQYHLTTKPGPPKKPKTPSRPSALAYCYHCAQKGHYGHECPEREVYDPSPVSPFICYYDDKYEIQEREKRLKQKIKVLKKNGVIPEPSKLPYIKAANENPHHDIRKGRASWKSNRWPQENKETQKEMKNKNRNWEKHRKADRHREVDEDFPRGPKTYSSPGSFKTQKPSKPFHRSSHYHTSREDKSPKEGKRGKQKKKERCWEDDDNDNLFLIKQRKKKS [ZCCHC7] | -2.02 | 0.926
MATLIYVDKENGEPGTRVVAKDGLKLGSGPSIKALDGRSQVSTPRFGKTFDAPPALPKATRKALGTVNRATEKSVKTKGPLKQKQPSFSAKKMTEKTVKAKSSVPASDDAYPEIEKFFPFNPLDFESFDLPEEHQIAHLPLSGVPLMILDEERELEKLFQLGPPSPVKMPSPPWESNLLQSPSSILSTLDVELPPVCCDIDI [PTTG1] | 0.176 | 0.554
MGLELYLDLLSQPCRAVYIFAKKNDIPFELRIVDLIKGQHLSDAFAQVNPLKKVPALKDGDFTLTESVAILLYLTRKYKVPDYWYPQDLQARARVDEYLAWQHTTLRRSCLRALWHKVMFPVFLGEPVSPQTLAATLAELDVTLQLLEDKFLQNKAFLTGPHISLADLVAITELMHPVGAGCQVFEGRPKLATWRQRVEAAVGEDLFQEAHEVILKAKDFPPADPTIKQKLMPWVLAMIR [GSTT1] | 0.038 | -0.295
